Experimental data reported in patent US20210238298A1 (ALLIGATOR BIOSCIENCE, published 2021).
Blank lines part the entries; values can stand above or below the binder they belong to.

How the values were obtained:
[1] = biological target: T1, Human OX40 (R&D systems, #3358_OX) (human, UniProt P43489 29-216); assay: dual ELISA: OX40-Fc coated, bispecific antibody in dilutions, biotinylated CD137-Fc (1 ug/ml), HRP-streptavidin; the signal needs both bindings at once
T1 construct: Bought; Several catalogue numbers are given for it; also called human OX40 (R&D Systems, 3388-OX); OX40-Fc (R&D systems, #3358_OX); not shown: Fc part
T1 sequence: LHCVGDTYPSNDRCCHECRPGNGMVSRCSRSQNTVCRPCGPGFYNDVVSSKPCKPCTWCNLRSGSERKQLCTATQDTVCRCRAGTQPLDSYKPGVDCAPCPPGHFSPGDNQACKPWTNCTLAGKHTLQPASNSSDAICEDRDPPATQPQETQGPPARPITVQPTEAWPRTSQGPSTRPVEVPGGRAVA

CTLA-4 (BMS, Orencia) [2] = biological target: T2, CTLA-4 (BMS, Orencia) (human, UniProt P16410 38-152); assay: cell-based or functional assay
CTLA-4 (BMS, Orencia) [3] = biological target: T2, CTLA-4 (BMS, Orencia); assay: cell-based or functional assay; remark: listed apart in the source
[4] = biological target: T3, CTLA4-Fc (Fitzgerald, #30R-CD152) (human, UniProt P16410 38-152); assay: inhibition ELISA; the best IC50 of Table 1.2 is that of 1040
T3 construct: Bought; also called human CTLA-4 (Fitzgerald); biotinylated-CTLA4; not shown: Fc part of the bought fusion, not described
Description: The sample (CD86 mutant or wild type protein; serially diluted ¼ from 30000 to 0.3 ng/ml) was incubated with biotinylated-CTLA4 (Fitzgerald, #30R-CD152) in room temperature 1 h, the mixture was then added to the blocked wells in the ELISA plate. Detection was performed with Streptavidin-HRP (Pierce, #21126) and the plates were subsequently developed using SuperSignal Pico Chemiluminescent substrate (Thermo Scientific, #37069) and detected with Envision reader (Perkin Elmer). […] Kd binding ratio=[Kd for CD28]÷[Kd for CTLA-4].

[5] = biological target: T3, CTLA4-Fc (Fitzgerald, #30R-CD152); assay: SPR (Biacore), immobilised CTLA4-Fc
Description: Either CTLA4-Fc (Fitzgerald, #30R-CD152) or CD28-Fc (R&D Systems, 342-CD) was immobilized to the Biacore™ sensor chip, CM5, using conventional amine coupling. The CD86 mutant molecules and controls (serially diluted ½ 100-1.5 nM) were analyzed for binding in HBS-P (GE, BR-1003-68) at a flow rate of […]. The association was followed for 3 minutes and the dissociation for 10 minutes. Regeneration was performed twice using 5 mM NaOH for 30 seconds. The kinetic parameters and the affinity constants were calculated using BIAevaluation 4.1 software (Table 1.3).

T3 sequence (P16410 38-152 limits assumed): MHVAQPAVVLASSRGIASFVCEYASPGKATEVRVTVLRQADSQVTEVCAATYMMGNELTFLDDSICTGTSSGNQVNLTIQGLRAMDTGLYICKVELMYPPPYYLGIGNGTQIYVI
T2 sequence (P16410 38-152 limits assumed): as above

binding result [1]: binds
B1: 1526/1527-1204/1205 (bispecific antibody, human IgG1, kappa)
heavy chain fused to scFv (VH1-Hc-linker-VH2/VL2): not shown
light chain (VL1-Lc): DIQMTQSPSSLSASVGDRVTITCRASQSISSYLNWYQQKPGKAPKLLIYAASSLQSGVPSRFSGSGSGTDFTLTISSLQPEDFATYYCQQYGSDSLLTFGQGTKLEIKRTVAAPSVFIFPPSDEQLKSGTASVVCLLNNFYPREAKVQWKVDNALQSGNSQESVTEQDSKDSTYSLSSTLTLSKADYEKHKVYACEVTHQGLSSPVTKSFNRGEC
notes: OX40 x CD137 bispecific antibody, scFv-IgG format

Mean IL-2 level (pg/ml) induced at 1.5 nM (CTLA-4 (BMS, Orencia) [2]): 2580 pg/mL | Fold change in IL-2 level induced by bispecific molecule compared to the corresponding combination of the monospecific molecules at 1.5 nM (CTLA-4 (BMS, Orencia) [3]): 4.7 fold
B2: bispecific molecule 1170/1263 (OX40 x CTLA-4) (bispecific antibody, human IgG1, kappa)
heavy: not shown
light: DIQMTQSPSSLSASVGDRVTITCRASQSISSYLNWYQQKPGKAPKLLIYAASSLQSGVPSRFSGSGSGTDFTLTISSLQPEDFATYYCQQGHGSYPHTFGQGTKLEIKRTVAAPSVFIFPPSDEQLKSGTASVVCLLNNFYPREAKVQWKVDNALQSGNSQESVTEQDSKDSTYSLSSTLTLSKADYEKHKVYACEVTHQGLSSPVTKSFNRGECSGGGGSGGGGSAPLKIQAYFNETADLPCQFANSQNLSLSELVVFWQDQENLVLNEVYLGKERFDSVDSKYMGRTSFDSDSWTLRLHNLQIKDKGRYQCIIHHKKPTGMINIHQMNSELSVLA

fold improvement of IC50 compared to wild type [4]: > 100 fold | Kd [5]: 3 nM | koff [5]: 0.0032 s⁻¹ | kon [5]: 1e+06 M⁻¹ s⁻¹
B3: CD86 mutant 1040 (ligand)
chain: APLKIQAYFNETADLPCQFANSQNLSLSELVVFWQDQENLVLNEVYLGKERFDSVDSKYMGRTSFDSDSWTLRLHNLQIKDKGRYQCIIHHKKPTGMINIHQMNSELSVLA
notes: Variant of the CD86 extracellular domain
